From patent US20210363255A1 (TRUEBINDING, published 2021) come the findings set out here.

The target in test [1] is Purified human PD1 extracellular domain produced in E. coli fused to Fc (Ray Biotech) (human) (UniProt Q15116). Description: blocking ELISA; E. coli hPD1 ECD-Fc coated, antibody at 20 ug/ml, competitor ligand biotinylated deglycosylated mPD-1 Fc.
Test [2] deals with T1, hPD-1 peptide No. 12 (TDKLAAFPED) (human).
T1 construct: also called PD1 peptide 12; peptide 12
T1 peptide: TDKLAAFPED
Description: ELISA on hPD-1 peptide array. On the technique in general: In an ELISA, binding on a coated surface is turned into a signal by an enzyme label.

Sequence of Purified human PD1 extracellular domain produced in E. coli fused to Fc (Ray Biotech) (human) (Q15116 25-170): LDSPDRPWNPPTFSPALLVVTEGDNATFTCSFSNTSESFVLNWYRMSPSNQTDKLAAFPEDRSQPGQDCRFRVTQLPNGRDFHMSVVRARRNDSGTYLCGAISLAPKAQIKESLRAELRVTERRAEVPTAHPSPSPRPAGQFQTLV

Turning to mab12 (LS-C131333, LS Bio) (antibody), the binding remaining, % of unblocked controls (% of unblocked controls) in test [1] is 86.

B1: IMT200 (antibody, V domains shown)
VH: QVQLQQSGPELVKPGASVKISCKASGFAFSGSWMNWMKQRPGKGLEWIGRIYPGDGDTNYNGKSKGKATLTADTSSSTAYMQLSSLTSEDSAVYFCTRSTTILADYWGQGTTLTVSS
VL: DIQMTQTTSSLSASLGDRVTISCRASQDIANYLNWYQQKPDGTVKLLIYYTSRKYSGVPSRFSGSGSGTDYSLTISNLDQEDIATYFCQQGKTLPWTFGGGTKLEIK
notes: Monoclonal raised against non-glycosylated His-tagged hPD-1 and detected with anti-mouse IgG-HRP; also called monoclonal antibody IMT200; anti-PD-1 mAb IMT200
For B1, the binding result in test [2] is “binds”.
